Results reported in the nanobody polyreactivity screen of Harvey et al. (2022).

Assay: yeast display, Sf9 membrane polyspecificity reagent, FACS + sequencing; frameworks hold sequencing errors
How it was run: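 A nanobody's polyreactivity label depends on the gate it was sorted from. Yeast display cells were stained with 10% biotinylated, detergent-solubilized Sf9 membrane reagent for 1 hour at 4 °C, enriched on streptavidin microbeads and sorted by FACS. The low and high (top ~1%) gates were set on anti-HA fluorescence for expression and streptavidin fluorescence for reagent binding.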

Sequence | polyreactivity (PSR sort gate)
QVQLVESGGGLVQAGGTLRLSCAACGRTFPINAMAWYRQAPGKERELVASIRWTDGTTYYADSVKGRFTISRDNAKNTVYLQMNSLKPEDTAVYYCAADAEGSASKYDYWGQGTQVTVSS | low polyreactivity
QVQLEESGGGLFQAGGSLRLSCAASGRTFRLYDMGWYRQAPGKERELVAAISKSGGSTYYADSVKGRFTISRDYAKNPVYVQMNSLKPEDTAVYYCAAGTRVCEYDYWGQGTQVTVSS | high polyreactivity
QFQIVESGGGLVQAGGSLRISCAASVFIFARYAIGWYRQAHGKEREFVAAISSSGGSTYYADSVKGRFTISRDNAKNTVYLQMNSLKPADTAVYYCNVRLRIRSGYWGQGSQVTVSS | high polyreactivity
QVQLVESGGGLVQAGGSLSLSCAASGSTFAYYAMGWYREAPGQERELVAGITWTGGSTYYADSVKGRFTISRDNAKNSVYLQMNSLKPEDTAVYYCAADRYFYEGDYWGQVTQVTVSS | low polyreactivity
QVQLVESGGGLVQAGGSLRLSCAASGSIFWKYAMGWYRQAPGKERELVAAISRSSSTTYYADSVKGRFTISRDNAKNTVYLQMNSLKPEDTAVYYCAADWRTKGYDSLGQGTQVTVSS | high polyreactivity
QVQLVESGGGLVQAGGSLRLSCAASGSTFFSYAMGWYRQAPGKERELVAAISWIDDGTYYADSVKGRFTISRDNAKNTVYLQMNSLKPEDTAVYYCAATKFWYYGYDYWGQGTQVTVSS | low polyreactivity
QVQLEESGGGLVQAGGSLRLSCAASGRNISRNAMGGYRQPPGKERELVAAITQSGTSTYYADSVKGRFTLSRDNAKNTVYLQMKSLIPEDTAVYYCNAYRQYRYDYWGQGSQVTVSS | low polyreactivity
QVQLVESGGGLVQAGGSLRLSGAASGGTFDYYAMGRYRQAPGKERELVAAISTSGGRTYYADSVKGRFTISRDNAKYTVYLQMNSLKPEDTAVYYCAALSPRAKYASFYYWGQGTQVTVSS | high polyreactivity
QVQLVESGGGLVQAGGSLRLSCAASGSIFRGYAMGWYRQEPEKERELVAAMSRRGGSTYYADSVKGRFSISRDNAKNTVYLQMNSLKPEDTAVYYCAKDGTGAGNYDYWGQGTQVTVSS | low polyreactivity
QVQLVESGGGLVQAGGSLRLSCAASGRIFTYNAMGWYRQAPGKERELVAVISRRGGSTYYADSVKGRFTISRDYAKNTVYFQMNSLKAEDTAVYYCAGDLPSYPYEYWGQGTQVTVSS | low polyreactivity
QVQLVESGGGLVQAGGSLRLSCAASGRIFKLYAMGWDRQAPGKERELVAAISKSGGNTYADSVKGRFTISRDNAKNTVYLQMNSLKPEDTAVYYCAATVQSTSDPFDYWGQGTQVTVSS | low polyreactivity
QVQLVESGGGLVQAGGSLRLTSAASGRIFGYYAMGWYRQAPGKERDLVAAIRYSSGRTYYADSVKGRFTISRDNAKNIVYLQMNSLKPEDTAVYYGNAGYLFLRSYPHDYWGQGTQVTVSS | high polyreactivity
QVQLVESGGGLVQEGGSLRLSCAASGFIFAWYDMGWYRQAPGKERELVAAISYYGGSTYYADSVKGRFTISRDNAKNTVYLQMNSLKPVDTAVYYCIKVSRGGSYGDAFDYWGQGTQVTVSS | high polyreactivity
QVQLVESGGGLVQAGGSLRLSCAASGSTFRRYAMGWYRQAPGKERELVADISSGGSTYYADSVKGRFTISRDNAKNTVYLQMNSLKPEDTAVYYCNAKTFYYGSRFRRAEYDYWGQGTQVTLSS | low polyreactivity
QVQLVESGGGLVQAGGSLRLSCAASGSIFYRYAMGWYRQAPGKERELVAAIRWSGGSTYYADSVKGRFTISRDNAKNTVYLQMNSLKPEDTAVYYCATEVSSGGYWSWYGYWGQGTQVTVSS | low polyreactivity
QVQLVESGGGLVQAGGSLRLSCAASGGTFYYYAMGWYRQAPGKERELVAAITRSGGNTYYADSVKGRFTISRDNAKNTVYLQMNSLKPEDTAVYYCAAPFVKFVGSLVYAGYDSWGQGTQVTVSS | low polyreactivity
QVHLVESGGRLVQAGGSLRLICAASGRIFFTYAMGWYRQAPGKDRELVASITGSGGSTYYADSVKGSFTISRDNAKNTVYLQMNRLKPEDTAVYYCAAALFRRQLYRKFYYWGQGTQVTVSS | low polyreactivity
QVQLVESGGGLVQAGGSLRLICAASGFTFGYYAMGWYRQAPGKEREFVARISWSGDSTYYADSVKGRFTISRDNAKNTVYLQMTSLKPEDTAVYYCAARFTRQMYYWGQGTQVTVSS | high polyreactivity
QVQLVESGGGLVQAGGSLRLSCAASGRTFNVNAMGWYRQAPGKERELVASITWSDGSTYYADSVKGRFTISRDNAKNTVYLQMNSLKPEDTAVYYCNVTYGLESSYPRDDYWGQGTQVTVSS | low polyreactivity
QVQLVESGGGLVQAGGSLRLSCAASGRTFGSYAMGWYRQAPGKERELVAAISRSGTNTYYADSVKGRFTISRDNAKNTVYLQMNSLKPEDTAVYYCATDFYFSSVLVWFSYGYWGQGTQVTVSS | low polyreactivity
QVQLVESGGGLVQAGCSLRLSCDASGSIFTWYAIGWYRQAPGKERELVAAITRGGSTYADSVKGRFTISRDNAKNNVYLQMNSLKPEDSAVYYCAARRVPIRVGGYPYYYWGQGSQVTVSS | low polyreactivity

Sequence | polyreactivity (PSR sort gate)
QVQLVESGGGLVQAGVSLRLSCAASGSILRQYAMGWYRQAPGKEWELVAAITGSGGSTSYADSVKGRFTISRDNAKNTVYLQMNSLKPEDTAVYYCNAYLSSRTRSTYGSLRMDYWGPGTQVTVSS | high polyreactivity
QVQLVDSGGGLVQAGGSLRLSCAASGFIFWYYAMGWYRQEPRKERELVAAITSGGNTNYADSVKGRFTISRDNAKNTVYLQMNSLKPEDTAVYYCATGRASGREHDSWGQGTQVTVSS | low polyreactivity
QVQLVESGGGLVQAGGSLRLSCAASGRIFGAYAMGWYRQAPGKERELVAAITSRGGNTYYADSVKGRFTISRDTAKNTVYLQMNSLKPEDTAVYSCAARHDKRRQYYVGQSAFDYWGQGTQVTVSS | low polyreactivity
QVQLVESGGGLVQAGGSLRLSCAASGRTIKYYAMGWYRQAPGKERELVAVISWSGGSTYYADSVKGRFTISRDNAKNTVYLQMNSLKPEDTAVYYCNAVHQYRRRYNYWGQGTQVTVSS | high polyreactivity
QVQLVESGGGLVQAGGSLRLSCAASGSTFFTNAMGWYRQAPGKERELVAAITINDGSTFYADSVKGRFTISRDNAKNTVYLQMNSLKPEDTAVYYCNADGVDLYDYWGQGTQVTVSS | low polyreactivity
QVQLVESGGGLLQAGGSLLLSCAASGSNFAYYAMGWYRQAPGKERELVAAITRGAGRTFYADSVKGRFTISRDNAKNTVYLQMNSLKQEDTAVYYCAADVSGSKYDYWGQGTQVTVSS | high polyreactivity
QVQLVESGGGLVQAGGSLRLSCAASGIIFEYYTMGWYRQAPGNERELVASITYDGDSTYYADSVKGRFTISRDHAKNTVYLQINSLKPEDTAVYFCAADYYYVYSSFGHYYWGQGTQVTVSS | low polyreactivity
QVQHVESGGGLVQAGGSLRLSCAASGRTFAQYTMGWYRQAPGKERELVAGIDWSGGNTYYADSVKGRFTISRDNAKNTVYLQMNSLKPVDTAVYYCAAVPAFYNAWGEDYEYWGQGTQVTVSS | low polyreactivity
QVQLVESGGGLVQAGGSLRLSCAASGRIFDQNAMGWYRQAPGKERELVAAITWSGGSTNYADSVKGRFTISRDNAKNTVYLQMNSLKPEDTAVYYCATDGKPSFYSFDYWGQGTQVTVSS | low polyreactivity
QVQLVESGGGLVQAGVSLRLSCADSGFTFDGYAMGWYRQAPGKERELVAAISDSGDSTYYADSVKGRFTISRDNAKNTVYLHMNSLKPEDTAVYYCAAGLGYYWSDYFAYDYWGQGTQVTVSS | low polyreactivity
QVQLVESGGGLVQAGGSLRLSCAASGSTFTGNAMGWYSQAPGKERELVAAISRSGGRTYYADSVKGRFTISRDNAKNTVYLQMNSLKPEDTAVYYCNAVRNRGQRTAFDYWGQGTQVTVSS | high polyreactivity
QVQLVESGGGLVQAGGSLRVSCAASGRIFRWYAMGWYRQAPGKERELVAAITSRGTSTYYADSVKGRFTISRDNAKNTDYLQMNSLKPEDTAVYYCNAVPSRGYDYWGQGTQVTVSS | high polyreactivity
QVQLVESGGGLVQAGGSLRLSCAASGITIRLSALGGYRQAPGNERELVAAITSGGSTYADSVKGRFTISRDNAKNTVYLQMNSLKPEDTAVYYCNAEALVNGGYDYWGQGTQVTVSS | high polyreactivity
QVQLVESGGGLVQAGGSLRLSCAASGRIFTQYAMGWYRPPPGKERELVAAINASDGSTYADSVKGRFTISRDNAKNTVYLQMKSLKPEDTAVYYCNVTGGPYDFTRWSEFDHWGQGTQVTVSS | low polyreactivity
QVQLVESGGGLVQAGGSLRLSCAASGFTFGSNTMGWYRQAPGKERELVAVITWSGGSTYYADSVKGRFTISRDYAKNTVYLQMNSLKPEDTAVYSCAAEATSPLTWFDYWGQGTQVTVSS | low polyreactivity
QVQQVESGGGLVQAGGSLRLSCAATGRTFALYAMGWYRLAPGKERELVAGITFRGGSTYYADSVKGRFTISRDNAKNTVYLQMNSLKPEDTAVYYCAAERWRWYYSWTMDYWGQGTQVTVSS | high polyreactivity
QVQLEESGGGLVQAGGSLRLSCAASGSIFVTNVMGWYRQAPGKERELVAVINSGGRTYYADSVKGRFTISRDNAKNTVYLQMNSLKPEDTAVYYCAKDSWSSYPSLYPEFDYWGQGTQVTVSS | low polyreactivity
QVQLVESGGGLVQAGGSLRLSCAASGFIFTRNAMGWYRQAPGKERELVAAISASGGRTYYADSVKGRFTISRDNAKNTVYLQMNSLKPEDTAVYYCNTGIYVARSTYGRFKYDYWGQGTQVTVSS | high polyreactivity
QVQLVESGGGLVQAGGSLRLSCAASGSTLNRNVMGWYRQAPGKEREFVAVITYGVGSTYYADSVKGRFTISRDNAKNTVYLQMNSLKPEDTAVYYCNKDPLVFDYWGQGTQVTVSS | low polyreactivity
QVQLVESGGGLVQAGGSLRLSCAASGSSFWSNAMGWYRQAPGKEREFVAAINWSGDNTYYADSVKGRFTISRDNSKNKVYLKLISLKPEDTAVYYCIGVGDYPKYSGGFDYCGQGTQVTVSS | low polyreactivity
